Literature values in article PMC6063947.

Target: Asp61 (UniProt position 61, VMGLVDAIPMI)
Test: NMR

ATP synthase subunit c (F0 sector, proteolipid) (Escherichia coli)
pKa: 7.1
